First the molecules themselves.
B1: full-length human αE-catenin (natural protein)
chain: GMTAVHAGNINFKWDPKSLEIRTLAVERLLEPLVTQVTTLVNTNSKGPSNKKRGRSKKAHVLAASVEQATENFLEKGDKIAKESQFLKEELVAAVEDVRKQGDLMKAAAGEFADDPCSSVKRGNMVRAARALLSAVTRLLILADMADVYKLLVQLKVVEDGILKLRNAGNEQDLGIQYKALKPEVDKLNIMAAKRQQELKDVGHRDQMAAARGILQKNVPILYTASQACLQHPDVAAYKANRDLIYKQLQQAVTGISNAAQATASDDASQHQGGGGGELAYALNNFDKQIIVDPLSFSEERFRPSLEERLESIISGAALMADSSCTRDDRRERIVAECNAVRQALQDLLSEYMGNAGRKERSDALNSAIDKMTKKTRDLRRQLRKAVMDHVSDSFLETNVPLLVLIEAAKNGNEKEVKEYAQVFREHANKLIEVANLACSISNNEEGVKLVRMSASQLEALCPQVINAALALAAKPQSKLAQENMDLFKEQWEKQVRVLTDAVDDITSIDDFLAVSENHILEDVNKCVIALQEKDVDGLDRTAGAIRGRAARVIHVVTSEMDNYEPGVYTEKVLEATKLLSNTVMPRFTEQVEAAVEALSSDPAQPMDENEFIDASRLVYDGIRDIRKAVLMIRTPEELDDSDFETEDFDVRSRTSVQTEDDQLIAGQSARAIMAQLPQEQKAKIAEQVASFQEEKSKLDAEVSKWDDSGNDIIVLAKQMCMIMMEMTDFTRGKGPLKNTSDVISAAKKIAEAGSRMDKLGRTIADHCPDSACKQDLLAYLQRIALYCHQLNICSKVKAEVQNLGGELVVSGVDSAMSLIQAAKNLMNAVVQTVKASYVASTKYQKSQGMASLNLPAVSWKMKAPEKKPLVKREKQDETQTKIKRASQKKHVNPVQALSEFKAMDSI
B3: full-length human β-catenin (natural protein)
chain: GMATQADLMELDMAMEPDRKAAVSHWQQQSYLDSGIHSGATTTAPSLSGKGNPEEEDVDTSQVLYEWEQGFSQSFTQEQVADIDGQYAMTRAQRVRAAMFPETLDEGMQIPSTQFDAAHPTNVQRLAEPSQMLKHAVVNLINYQDDAELATRAIPELTKLLNDEDQVVVNKAAVMVHQLSKKEASRHAIMRSPQMVSAIVRTMQNTNDVETARCTAGTLHNLSHHREGLLAIFKSGGIPALVKMLGSPVDSVLFYAITTLHNLLLHQEGAKMAVRLAGGLQKMVALLNKTNVKFLAITTDCLQILAYGNQESKLIILASGGPQALVNIMRTYTYEKLLWTTSRVLKVLSVCSSNKPAIVEAGGMQALGLHLTDPSQRLVQNCLWTLRNLSDAATKQEGMEGLLGTLVQLLGSDDINVVTCAAGILSNLTCNNYKNKMMVCQVGGIEALVRTVLRAGDREDITEPAICALRHLTSRHQEAEMAQNAVRLHYGLPVVVKLLHPPSHWPLIKATVGLIRNLALCPANHAPLREQGAIPRLVQLLVRAHQDTQRRTSMGGTQQQFVEGVRMEEIVEGCTGALHILARDVHNRIVIRGLNTIPLFVQLLYSPIENIQRVAAGVLCELAQDKEAAEAIEAEGATAPLTELLHSRNEGVATYAAAVLFRMSEDKPQDYKKRLSVELTSSLFRTEPMAWNETADLGLDIGAQGEPLGYRQDDPSYRSFHSGGYGQDALGMDPMMEHEMGGHHPGADYPVDGLPDLGHAQDLMDGLPPGDSNQLAWFDTDL

Experiment [1] has as its target β-catenin•epithelial cadherin cytoplasmic domain complex (BE) (human, UniProt P35222;P12830). Description: SPR.
Experiment [2] concerns the target B1. As to the kind of experiment: SPR.
The target of experiment [3] is B1. Description: contrast variation small-angle neutron scattering.
The target of experiment [4] is B3. As to the kind of experiment: SPR.

The source of these data is publication PMC6815173 (Proceedings of the National Academy of Sciences of the …, 2019).

Take B1: in experiment [1], binding was put at a Kd of 119 ± 6.3 nM and the koff came to 0.0004 s⁻¹.

B2: complex of the β-catenin truncation mutant that lacks the N-terminal 107 residues with EcadCT (B_(N-107)E) (complex)
chain 1: QIPSTQFDAAHPTNVQRLAEPSQMLKHAVVNLINYQDDAELATRAIPELTKLLNDEDQVVVNKAAVMVHQLSKKEASRHAIMRSPQMVSAIVRTMQNTNDVETARCTAGTLHNLSHHREGLLAIFKSGGIPALVKMLGSPVDSVLFYAITTLHNLLLHQEGAKMAVRLAGGLQKMVALLNKTNVKFLAITTDCLQILAYGNQESKLIILASGGPQALVNIMRTYTYEKLLWTTSRVLKVLSVCSSNKPAIVEAGGMQALGLHLTDPSQRLVQNCLWTLRNLSDAATKQEGMEGLLGTLVQLLGSDDINVVTCAAGILSNLTCNNYKNKMMVCQVGGIEALVRTVLRAGDREDITEPAICALRHLTSRHQEAEMAQNAVRLHYGLPVVVKLLHPPSHWPLIKATVGLIRNLALCPANHAPLREQGAIPRLVQLLVRAHQDTQRRTSMGGTQQQFVEGVRMEEIVEGCTGALHILARDVHNRIVIRGLNTIPLFVQLLYSPIENIQRVAAGVLCELAQDKEAAEAIEAEGATAPLTELLHSRNEGVATYAAAVLFRMSEDKPQDYKKRLSVELTSSLFRTEPMAWNETADLGLDIGAQGEPLGYRQDDPSYRSFHSGGYGQDALGMDPMMEHEMGGHHPGADYPVDGLPDLGHAQDLMDGLPPGDSNQLAWFDTDL
chain 2: not shown
In experiment [2], B2 yielded a Kd of 12600 ± 758 nM and a koff of 0.002 s⁻¹.

Regarding B3, the binding result in experiment [3] was “binds”.

B4: entire cytoplasmic domain of human E-cadherin (EcadCT; residues 731 to 882) (domain or fragment)
chain: not shown
The molecule B4 yielded a Kd in experiment [4] of 104 ± 3.2 nM.
